The record followed here is paper PMC11600153, “Mg^2+-Ion Dependence Revealed for a BAHD 13-O-β-Aminoacyltransferase from Taxus Plants” (JACS Au, 2024).

Substrate in the series: CC(C)=C[C@H](N)[C@@H](O)C(=O)O
In words: LC/ESI-MS/MS product quantification, Michaelis-Menten fit. Type of series: biochemical, Brevibacillus parabrevis. The note with it: 7 varied 0.05-1 mM, CoA 1 mM, ATP 1 mM, MgCl2, phosphate pH 8, 31 °C.

Usually Km stands for the concentration of substrate that gives half-maximal velocity. One may read the kcat as the number of substrate molecules converted per active site and unit of time at saturation.

B1: PheAT (truncated TycA module of tyrocidine synthase) (Brevibacillus parabrevis) (protein)
chain: MLANQANLIDNKRELEQHALVPYAQGKSIHQLFEEQAEAFPDRVAIVFENRRLSYQELNRKANQLARALLEKGVQTDSIVGVMMEKSIENVIAILAVLKAGGAYVPIDIEYPRDRIQYILQDSQTKIVLTQKSVSQLVHDVGYSGEVVVLDEEQLDARETANLHQPSKPTDLAYVIYTSGTTGKPKGTMLEHKGIANLQSFFQNSFGVTEQDRIGLFASMSFDASVWEMFMALLSGASLYILSKQTIHDFAAFEHYLSENELTIITLPPTYLTHLTPERITSLRIMITAGSASSAPLVNKWKDKLRYINAYGPTETSICATIWEAPSNQLSVQSVPIGKPIQNTHIYIVNEDLQLLPTGSEGELCIGGVGLARGYWNRPDLTAEKFVDNPFVPGEKMYRTGDLAKWLTDGTIEFLGRIDHQVKIRGHRIELGEIESVLLAHEHITEAVVIAREDQHAGQYLCAYYISQQEATPAQLRDYAAQKLPAYMLPSYFVKLDKMPLTPNDKIDRKALPEPDLTANQSQAAYHPPRTETESILVSIWQNVLGIEKIGIRDNFYSLGGDSIQAIQVVARLHSYQLKLETKDLLNYPTIEQVALFVKSTTRKSD
notes: truncated TycA (PheAT)
B1: the Km came to 112 µM and the kcat was 0.0083 s⁻¹.
